Measurements taken from PMC10360031 (ACS Applied Materials & Interfaces, 2023).

Biological target: T1, wild-strain SARS-CoV-2 spike protein RBD (SARS-CoV-2, UniProt P0DTC2)
T1 construct: also called S1 RBD; wild-type strain S1 RBD
Experiment: AFM single-molecule force spectroscopy
Settings: one partner purified

B1: cell-surface vimentin (CSV) on mouse embryonic fibroblasts mEF +/+ (natural protein)
chain: not shown
notes: also called extracellular Vim; native extracellular Vim; source: endogenous, on live mEF +/+ cells
With B1 as the binder, how does the koff read?
Its koff is 0.19 ± 0.07 s⁻¹.
